{
  "source": "paper PMC2901993",
  "about": "(Biochemical and biophysical research communications, 2010)",
  "binders": {"B1": {"name": "translin (mouse), co-expressed with trax from pETDuet-1 (natural protein, mouse (M. musculus), UniProt Q62348 1-228, looked up)", "chain": "MSVSEIFVELQGFLAAEQDIREEIRKVVQSLEQTAREILTLLQGVHQGTGFQDIPKRCLKAREHFSTVKTHLTSLKTKFPAEQYYRFHEHWRFVLQRLVFLAAFVVYLETETLVTREAVTEILGIEPDREKGFHLDVEDYLSGVLILASELSRLSVNSVTAGDYSRPLHISTFINELDSGFRLLNLKNDSLRKRYDGLKYDVKKVEEVVYDLSIRGFNKETAAACGEK"}},
  "target": "T1, translin-associated factor x (trax), mouse, N-terminal 6x-His tag (mouse (M. musculus), UniProt Q9QZE7 1-290)",
  "T1 sequence (looked up)": "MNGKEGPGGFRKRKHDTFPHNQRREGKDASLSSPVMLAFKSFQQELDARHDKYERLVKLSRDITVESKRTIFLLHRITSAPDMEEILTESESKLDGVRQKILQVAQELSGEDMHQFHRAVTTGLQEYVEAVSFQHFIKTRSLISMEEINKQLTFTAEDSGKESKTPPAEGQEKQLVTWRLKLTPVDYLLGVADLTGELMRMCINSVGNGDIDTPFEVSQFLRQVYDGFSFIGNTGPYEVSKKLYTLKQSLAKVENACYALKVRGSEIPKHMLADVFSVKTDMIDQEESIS",
  "assay": "pull-down",
  "data": [
    {"binder": "B1", "values": [
      {"measurement": "stoichiometry N", "value": "~1"}
    ]}
  ]
}
